Test results: patent publication US20230391872A1 (ANAPTYSBIO, published 2023)

Key:
[1] = target: T1, human BTLA on cells (stably transfected 293c18 cells; human peripheral blood T and B cells) (human, UniProt Q7Z6A9 31-289); assay: flow cytometry, DyLight 650-labeled 6G3 IgG4 on human peripheral blood CD8+ T cells
T1 construct: whole, on cells; the cells are named under assay; also called cell surface BTLA; full-length human BTLA
Description: PBMCs were washed and incubated at 2×10⁷ cells/ml in FACS buffer (PBS, 1% BSA, 0.02% sodium azide) with Human BD Fc Block (2.5 μg/1×10⁶ cells, BD Biosciences) and LIVE/DEAD® Fixable Yellow Dead Cell Stain (30 μl, ThermoFisher Scientific) for 10 minutes on ice. Cells were washed once in FACS buffer, resuspended in FACS buffer at 1×10⁷ cells/ml and the following phenotyping antibodies added: Alexa Fluor 488-anti-human CD3E clone SK7, Brilliant Violet 421-anti-human CD4 clone OKT4, Brilliant Violet 785-anti-human CD8 clone SK1, and Brilliant Violet 570-anti-human CD20 clone 2H7 (50 μl each; all from BioLegend, Inc.). […] Samples were washed twice in FACS buffer, resuspended in 150 μl/well FACS buffer, and analyzed for fluorescence on a NovoCyte Flow Cytometer (ACEA Biosciences, Inc.). Data were analyzed using NovoExpress Software (ACEA Biosciences, Inc.). Median fluorescence intensities of anti-BTLA or isotype staining on gated CD4⁺ T cells (FIG. 4), CD8⁺ T cells (FIG. 4), or CD20⁺ B cells (FIG. 4) were graphed and curves fit with log(agonist) vs. response (three parameters) least squares fit for EC₅₀ calculation in GraphPad Prism (GraphPad Software, Inc.).

[2] = target: T2, cynomolgus monkey BTLA on cells (stably transfected 293c18 clone 1G5); cynomolgus peripheral blood T and B … (cynomolgus monkey, UniProt A0A2K5W7M7 31-289); assay: flow cytometry, AF647-labeled 6G3 IgG4 on cynomolgus monkey peripheral blood CD20+ B cells
T2 construct: whole, on cells; also called cynomolgus monkey BTLA 293c18 cells
T2 sequence: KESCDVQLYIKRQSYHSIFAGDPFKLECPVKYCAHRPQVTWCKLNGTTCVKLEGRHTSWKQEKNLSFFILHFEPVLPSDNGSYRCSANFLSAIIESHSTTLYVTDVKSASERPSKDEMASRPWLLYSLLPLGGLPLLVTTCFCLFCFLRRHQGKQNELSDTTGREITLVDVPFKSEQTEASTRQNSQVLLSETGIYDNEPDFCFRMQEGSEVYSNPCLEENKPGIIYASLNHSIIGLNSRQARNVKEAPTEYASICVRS
Description: Blood was then aliquoted into wells and incubated with the indicated concentrations of 6G3-AF647 (APE13766.02), or APC-Mouse Anti-Human CD272 (BTLA) reference antibody (clone J168-540; BD Biosciences) for minutes at room temperature, in the dark. Following incubation, red blood cells were lysed for minutes by addition of 2.0 ml diluted BD Pharm Lyse lysing solution (BD Biosciences), samples centrifuged at 200×g for 5 minutes, washed in FACS Buffer [Dulbecco's PBS, no calcium, no magnesium (Gibco/ThermoFisher Scientific), 25 mM HEPES, pH 7.2, 0.1% BSA, sodium azide] and fixed in 4% paraformaldehyde (200 μl/sample) for 10 minutes at room temperature. Samples were washed twice in FACS Buffer and analyzed for fluorescence on a NovoCyte Quanteon flow cytometer (ACEA Biosciences, Inc.). Data were analyzed using NovoExpress Software (ACEA Biosciences, Inc.). Mean fluorescence intensity (MFI) values were graphed and fit with nonlinear regression analyses in GraphPad Prism (GraphPad Software, Inc.). MFI values for each anti-BTLA antibody on total CD3+cells are shown in FIG. 5A; MFI values for each anti-BTLA antibody on total CD20+cells are shown in FIG. 5B. […] Binding of each anti-BTLA antibody to CD3⁻ cells in FIG. 5C and FIG. 5D (green cells in the bottom quadrants of each panel) reflects the binding to CD20⁺ B cells. […]

B1: 6G3 IgG4 anti-BTLA antibody (APE10840 / APE12839 / APE13308) (antibody, V domains shown)
VH: QVQLVQSGAEVKKPGSSVKVSCKASGYVFSTSWMNWVRQAPGQGLEWMGRIYPGDADTNYVGKFKGRVTITADKSTTTAYMELSSLRSEDTAVYFCAKSGTFNFGNYRWYFDVWGKGTTVTVSS
VL: AIQLTQSPSSLSASVGDRVTITCRVSENIYSHLAWYQQKPGKAPKLLIYAATNLALGVPSRFSGSGSGTDYTLTISSLQPEDFATYYCQLFWGPPLTFGGGTKVEIKR
notes: Humanized antibody from a mouse hybridoma, tested as human IgG4 (detected with anti-human kappa); Some assays used labelled lots (DyLight 650, AF647, biotin, DyL488); also called 6G3 antibody; APE10840.03
EC50 [1]: ~3.2 nM | EC50 [2]: ~1.4 nM
